The record followed here is patent US20200325187A1 (Genentech, published 2020).

T1: hVEGF-A (8-109) (human, UniProt P15692 214-315)
T1 sequence (looked up): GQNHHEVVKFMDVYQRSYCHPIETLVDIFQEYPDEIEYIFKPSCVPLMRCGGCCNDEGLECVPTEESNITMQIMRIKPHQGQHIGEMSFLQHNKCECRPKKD

The target of the assay is T1, hVEGF-A (8-109). The assay can be described thus: spot phage ELISA. (In general: An ELISA detects its analyte on a solid surface through an enzyme-linked reagent.)
On to GCNIMLPFWGCGRDFECLAGCVCQYYQSCGFH (designed binder) [9.54.90-2x28], for which the binding result is recorded as “binds”.
As to GCNIMLPFWGCGRDFECLAGCVCQYYQSCGVH (designed binder) [9.54.90-2x90], the binding result is “binds”.
The same measure for GCNIMLPFWGCGRDFECLAGCVCQYYQSCGTR (designed binder) [9.54.90-2x36]: “binds”; for GCNIMLPFWGCGRDFECLAGCVCQYYQSCGLS (designed binder) [9.54.90-2x42]: “binds”.
On to GCDVMQPYWGCEMDFDCLAGCVCHWYNSCGSL (designed binder) [9.63-36], for which the binding result is reported as “binds”.
GCDVMQPYWGCEMDFDCLAGCVCHWYNSCGDL (designed binder) [9.63-16]: the binding result is given as “binds”.
For GCDVMQPYWGCEMDFDCLAGCVCHWYNSCGSM (designed binder) [9.63-45], the binding result is “binds”.
The same measure for GCDVMQPYWGCEMDFDCLAGCVCHWYNSCGNN (designed binder) [9.63-65]: “binds”; for GCDVMQPYWGCKQDSDCLAGCICHWYNSCGTD (designed binder) [9.63-19]: “binds”.
With GCDVMQPYWGCEMDFDCLAGCVCHWYNSCGGK (designed binder) [9.63-7] the entry was “binds”; with GCDVMQPYWGCEMDFDCLAGCICHWYNSCGRP (designed binder) [9.63-74], “binds”; with GCDVMQPYWGCEMDFDCLAGCVCHWYNSCGRL (designed binder) [9.63-21], “binds”.
With GCDVMQPYWGCEMDFDCLAGCVCHWYNSCGEK (designed binder) [9.63-17] the entry was “binds”; with GCDVMQPYWGCEMDFDCLAGCICHWYNSCGPE (designed binder) [9.63-66], “binds”; with GCDVMQPYWGCEMDFDCLAGCICHWYNSCGAS (designed binder) [9.63-23], “binds”.
Regarding GCDVMQPYWGCKQDFDCLAGCICHWYNSCGYL (designed binder) [9.63-10], the binding result is on record as “binds”.
On to GCDVMQPYWGCEMDFDCLAGCVCHWYNSCGWD (designed binder) [9.63-40], for which the binding result is “binds”.
Turning to GCDVMQPYWGCKQDSDCLAGCVCHWYNSCGEN (designed binder) [9.63-62], the binding result is reported as “binds”.
As to GCDVMQPYWGCEMDFDCLAGCVCHWYNSCGVE (designed binder) [9.63-68], the binding result is given as “binds”.
With GCDVMQPYWGCKQDFDCLAGCVCHWYNSCGPS (designed binder) [9.63-1] the entry was “binds”; with GCDVMQPYWGCEMDFDCLAGCICHWYNSCGTR (designed binder) [9.63-61], “binds”; with GCDVMQPYWGCEMDFDCLAGCICHWYNSCGPT (designed binder) [9.63-30], “binds”.
